Source: paper PMC4155688, “Mapping the Putative G Protein-coupled Receptor (GPCR) Docking Site on GPCR Kinase 2” (The Journal of Biological Chemistry, 2014)

T1: α2AAR-GFP^2 (UniProt P08913 1-465)
T1 construct: α2A-adrenergic receptor; also called α2A-adrenergic receptor; source: HEK293T, transfected, in living cells; not shown: GFP^2, C-terminal (from the name α2AAR-GFP^2), kept
T1 sequence (looked up): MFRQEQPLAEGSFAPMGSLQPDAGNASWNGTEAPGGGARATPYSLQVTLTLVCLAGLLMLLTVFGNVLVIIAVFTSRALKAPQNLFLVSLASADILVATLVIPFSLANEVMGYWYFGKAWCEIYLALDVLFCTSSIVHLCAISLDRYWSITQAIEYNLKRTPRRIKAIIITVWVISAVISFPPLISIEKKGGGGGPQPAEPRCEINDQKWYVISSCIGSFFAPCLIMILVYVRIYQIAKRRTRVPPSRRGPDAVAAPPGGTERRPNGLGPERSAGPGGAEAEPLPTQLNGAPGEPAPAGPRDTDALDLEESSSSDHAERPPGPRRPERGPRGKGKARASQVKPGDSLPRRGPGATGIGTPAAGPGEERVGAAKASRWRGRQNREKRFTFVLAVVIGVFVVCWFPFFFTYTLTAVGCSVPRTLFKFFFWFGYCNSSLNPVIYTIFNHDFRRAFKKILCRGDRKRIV


Target: T1, α2AAR-GFP^2
Test: FRET or BRET; living HEK293T cells co-transfected with α2AAR-GFP^2 (acceptor) and RlucII-GRK2 (donor); in PBS at room temperature, with or without 100 μM norepinephrine (one-point and titration: 6 min; time course); coelenterazine 400A 5 μM; net or agonist-promoted BRET
Details: partners not purified

| percent reduction of the agonist-promoted BRET relative to WT [%] | other results | Binder |
| --- | --- | --- |
| ~55 |  | RlucII-GRK2 A16V (enzyme, human, UniProt P25098 1-689, looked up, GRK2, human; source: HEK293T, transfected, in living cells) MADLEAVLADVSYLMVMEKSKATPAARASKKILLPEPSIRSVMQKYLEDRGEVTFEKIFSQKLGYLLFRDFCLNHLEEARPLVEFYEEIKKYEKLETEEERVARSREIFDSYIMKELLACSHPFSKSATEHVQGHLGKKQVPPDLFQPYIEEICQNLRGDVFQKFIESDKFTRFCQWKNVELNIHLTMNDFSVHRIIGRGGFGEVYGCRKADTGKMYAMKCLDKKRIKMKQGETLALNERIMLSLVSTGDCPFIVCMSYAFHTPDKLSFILDLMNGGDLHYHLSQHGVFSEADMRFYAAEIILGLEHMHNRFVVYRDLKPANILLDEHGHVRISDLGLACDFSKKKPHASVGTHGYMAPEVLQKGVAYDSSADWFSLGCMLFKLLRGHSPFRQHKTKDKHEIDRMTLTMAVELPDSFSPELRSLLEGLLQRDVNRRLGCLGRGAQEVKESPFFRSLDWQMVFLQKYPPPLIPPRGEVNAADAFDIGSFDEEDTKGIKLLDSDQELYRNFPLTISERWQQEVAETVFDTINAETDRLEARKKAKNKQLGHEEDYALGKDCIMHGYMSKMGNPFLTQWQRRYFYLFPNRLEWRGEGEAPQSLLTMEEIQSVEETQIKERKCLLLKIRGGKQFILQCDSDPELVQWKKELRDAYREAQQLVQRVPKMKNKPRSPVVELSKVPLVQRGSANGL |
|  | fold recruitment (agonist-promoted BRET) relative to WT: 2 fold | RlucII-GRK2 D317A (enzyme, human, UniProt P25098 1-689, looked up, GRK2, human; catalytically inert mutant; source: HEK293T, transfected, in living cells) MADLEAVLADVSYLMAMEKSKATPAARASKKILLPEPSIRSVMQKYLEDRGEVTFEKIFSQKLGYLLFRDFCLNHLEEARPLVEFYEEIKKYEKLETEEERVARSREIFDSYIMKELLACSHPFSKSATEHVQGHLGKKQVPPDLFQPYIEEICQNLRGDVFQKFIESDKFTRFCQWKNVELNIHLTMNDFSVHRIIGRGGFGEVYGCRKADTGKMYAMKCLDKKRIKMKQGETLALNERIMLSLVSTGDCPFIVCMSYAFHTPDKLSFILDLMNGGDLHYHLSQHGVFSEADMRFYAAEIILGLEHMHNRFVVYRALKPANILLDEHGHVRISDLGLACDFSKKKPHASVGTHGYMAPEVLQKGVAYDSSADWFSLGCMLFKLLRGHSPFRQHKTKDKHEIDRMTLTMAVELPDSFSPELRSLLEGLLQRDVNRRLGCLGRGAQEVKESPFFRSLDWQMVFLQKYPPPLIPPRGEVNAADAFDIGSFDEEDTKGIKLLDSDQELYRNFPLTISERWQQEVAETVFDTINAETDRLEARKKAKNKQLGHEEDYALGKDCIMHGYMSKMGNPFLTQWQRRYFYLFPNRLEWRGEGEAPQSLLTMEEIQSVEETQIKERKCLLLKIRGGKQFILQCDSDPELVQWKKELRDAYREAQQLVQRVPKMKNKPRSPVVELSKVPLVQRGSANGL |
| ~55 |  | RlucII-GRK2 L8E (enzyme, human, UniProt P25098 1-689, looked up, GRK2, human; source: HEK293T, transfected, in living cells) MADLEAVEADVSYLMAMEKSKATPAARASKKILLPEPSIRSVMQKYLEDRGEVTFEKIFSQKLGYLLFRDFCLNHLEEARPLVEFYEEIKKYEKLETEEERVARSREIFDSYIMKELLACSHPFSKSATEHVQGHLGKKQVPPDLFQPYIEEICQNLRGDVFQKFIESDKFTRFCQWKNVELNIHLTMNDFSVHRIIGRGGFGEVYGCRKADTGKMYAMKCLDKKRIKMKQGETLALNERIMLSLVSTGDCPFIVCMSYAFHTPDKLSFILDLMNGGDLHYHLSQHGVFSEADMRFYAAEIILGLEHMHNRFVVYRDLKPANILLDEHGHVRISDLGLACDFSKKKPHASVGTHGYMAPEVLQKGVAYDSSADWFSLGCMLFKLLRGHSPFRQHKTKDKHEIDRMTLTMAVELPDSFSPELRSLLEGLLQRDVNRRLGCLGRGAQEVKESPFFRSLDWQMVFLQKYPPPLIPPRGEVNAADAFDIGSFDEEDTKGIKLLDSDQELYRNFPLTISERWQQEVAETVFDTINAETDRLEARKKAKNKQLGHEEDYALGKDCIMHGYMSKMGNPFLTQWQRRYFYLFPNRLEWRGEGEAPQSLLTMEEIQSVEETQIKERKCLLLKIRGGKQFILQCDSDPELVQWKKELRDAYREAQQLVQRVPKMKNKPRSPVVELSKVPLVQRGSANGL |
| ~55 |  | RlucII-GRK2 M17A (enzyme, human, UniProt P25098 1-689, looked up, GRK2, human; source: HEK293T, transfected, in living cells) MADLEAVLADVSYLMAAEKSKATPAARASKKILLPEPSIRSVMQKYLEDRGEVTFEKIFSQKLGYLLFRDFCLNHLEEARPLVEFYEEIKKYEKLETEEERVARSREIFDSYIMKELLACSHPFSKSATEHVQGHLGKKQVPPDLFQPYIEEICQNLRGDVFQKFIESDKFTRFCQWKNVELNIHLTMNDFSVHRIIGRGGFGEVYGCRKADTGKMYAMKCLDKKRIKMKQGETLALNERIMLSLVSTGDCPFIVCMSYAFHTPDKLSFILDLMNGGDLHYHLSQHGVFSEADMRFYAAEIILGLEHMHNRFVVYRDLKPANILLDEHGHVRISDLGLACDFSKKKPHASVGTHGYMAPEVLQKGVAYDSSADWFSLGCMLFKLLRGHSPFRQHKTKDKHEIDRMTLTMAVELPDSFSPELRSLLEGLLQRDVNRRLGCLGRGAQEVKESPFFRSLDWQMVFLQKYPPPLIPPRGEVNAADAFDIGSFDEEDTKGIKLLDSDQELYRNFPLTISERWQQEVAETVFDTINAETDRLEARKKAKNKQLGHEEDYALGKDCIMHGYMSKMGNPFLTQWQRRYFYLFPNRLEWRGEGEAPQSLLTMEEIQSVEETQIKERKCLLLKIRGGKQFILQCDSDPELVQWKKELRDAYREAQQLVQRVPKMKNKPRSPVVELSKVPLVQRGSANGL |
|  | percent reduction of the NOR-promoted BRET signal relative to WT: 90% | RlucII-GRK2 R587Q (enzyme, human, UniProt P25098 1-689, looked up, GRK2, human; source: HEK293T, transfected, in living cells) MADLEAVLADVSYLMAMEKSKATPAARASKKILLPEPSIRSVMQKYLEDRGEVTFEKIFSQKLGYLLFRDFCLNHLEEARPLVEFYEEIKKYEKLETEEERVARSREIFDSYIMKELLACSHPFSKSATEHVQGHLGKKQVPPDLFQPYIEEICQNLRGDVFQKFIESDKFTRFCQWKNVELNIHLTMNDFSVHRIIGRGGFGEVYGCRKADTGKMYAMKCLDKKRIKMKQGETLALNERIMLSLVSTGDCPFIVCMSYAFHTPDKLSFILDLMNGGDLHYHLSQHGVFSEADMRFYAAEIILGLEHMHNRFVVYRDLKPANILLDEHGHVRISDLGLACDFSKKKPHASVGTHGYMAPEVLQKGVAYDSSADWFSLGCMLFKLLRGHSPFRQHKTKDKHEIDRMTLTMAVELPDSFSPELRSLLEGLLQRDVNRRLGCLGRGAQEVKESPFFRSLDWQMVFLQKYPPPLIPPRGEVNAADAFDIGSFDEEDTKGIKLLDSDQELYRNFPLTISERWQQEVAETVFDTINAETDRLEARKKAKNKQLGHEEDYALGKDCIMHGYMSKMGNPFLTQWQRRYFYLFPNQLEWRGEGEAPQSLLTMEEIQSVEETQIKERKCLLLKIRGGKQFILQCDSDPELVQWKKELRDAYREAQQLVQRVPKMKNKPRSPVVELSKVPLVQRGSANGL |
| ~55 |  | RlucII-GRK2 V7A (enzyme, human, UniProt P25098 1-689, looked up, GRK2, human; source: HEK293T, transfected, in living cells) MADLEAALADVSYLMAMEKSKATPAARASKKILLPEPSIRSVMQKYLEDRGEVTFEKIFSQKLGYLLFRDFCLNHLEEARPLVEFYEEIKKYEKLETEEERVARSREIFDSYIMKELLACSHPFSKSATEHVQGHLGKKQVPPDLFQPYIEEICQNLRGDVFQKFIESDKFTRFCQWKNVELNIHLTMNDFSVHRIIGRGGFGEVYGCRKADTGKMYAMKCLDKKRIKMKQGETLALNERIMLSLVSTGDCPFIVCMSYAFHTPDKLSFILDLMNGGDLHYHLSQHGVFSEADMRFYAAEIILGLEHMHNRFVVYRDLKPANILLDEHGHVRISDLGLACDFSKKKPHASVGTHGYMAPEVLQKGVAYDSSADWFSLGCMLFKLLRGHSPFRQHKTKDKHEIDRMTLTMAVELPDSFSPELRSLLEGLLQRDVNRRLGCLGRGAQEVKESPFFRSLDWQMVFLQKYPPPLIPPRGEVNAADAFDIGSFDEEDTKGIKLLDSDQELYRNFPLTISERWQQEVAETVFDTINAETDRLEARKKAKNKQLGHEEDYALGKDCIMHGYMSKMGNPFLTQWQRRYFYLFPNRLEWRGEGEAPQSLLTMEEIQSVEETQIKERKCLLLKIRGGKQFILQCDSDPELVQWKKELRDAYREAQQLVQRVPKMKNKPRSPVVELSKVPLVQRGSANGL |
| ~55 |  | RlucII-GRK2 V7E (enzyme, human, UniProt P25098 1-689, looked up, GRK2, human; source: HEK293T, transfected, in living cells) MADLEAELADVSYLMAMEKSKATPAARASKKILLPEPSIRSVMQKYLEDRGEVTFEKIFSQKLGYLLFRDFCLNHLEEARPLVEFYEEIKKYEKLETEEERVARSREIFDSYIMKELLACSHPFSKSATEHVQGHLGKKQVPPDLFQPYIEEICQNLRGDVFQKFIESDKFTRFCQWKNVELNIHLTMNDFSVHRIIGRGGFGEVYGCRKADTGKMYAMKCLDKKRIKMKQGETLALNERIMLSLVSTGDCPFIVCMSYAFHTPDKLSFILDLMNGGDLHYHLSQHGVFSEADMRFYAAEIILGLEHMHNRFVVYRDLKPANILLDEHGHVRISDLGLACDFSKKKPHASVGTHGYMAPEVLQKGVAYDSSADWFSLGCMLFKLLRGHSPFRQHKTKDKHEIDRMTLTMAVELPDSFSPELRSLLEGLLQRDVNRRLGCLGRGAQEVKESPFFRSLDWQMVFLQKYPPPLIPPRGEVNAADAFDIGSFDEEDTKGIKLLDSDQELYRNFPLTISERWQQEVAETVFDTINAETDRLEARKKAKNKQLGHEEDYALGKDCIMHGYMSKMGNPFLTQWQRRYFYLFPNRLEWRGEGEAPQSLLTMEEIQSVEETQIKERKCLLLKIRGGKQFILQCDSDPELVQWKKELRDAYREAQQLVQRVPKMKNKPRSPVVELSKVPLVQRGSANGL |
